Source: paper PMC9604513, “De novo selected hACE2 mimics that integrate hotspot peptides with aptameric scaffolds for binding tolerance of SARS-CoV-2 variants” (Science Advances, 2022)

How the values were obtained:
[1] = target: SARS-CoV-2 RBD wild type (SARS-CoV-2 (wild type)) (UniProt P0DTC2); assay: flow cytometry bead binding; settings: 5'-hexynyl clicked to C-terminal azide of peptide LGKGDFR
[2] = system: pseudotyped SARS-CoV-2; type: cell-based, SARS-CoV-2 (human hACE2-293T cells)
[3] = target: RBD-hACE2 binding (Severe acute respiratory syndrome coronavirus 2, UniProt P0DTC2); settings: ELISA, 3 μM, n = 3 independent replicates

Substance | binding signal (RBD-binding fraction relative to R7-02) [1] | percentage of GFP-expressing infected cells over the total hACE2-293T cells [2] | inhibition of RBD-hACE2 interaction [3]
GGAAGAGATGGCGACCTCCACAACCGCTGATCGACGCAGATCTTGTGGGTAGCTGATCCTGATGG [R7-01 hybrid ligand (LGKGDFR-DNA)] | 0.2 | – | –
LGKGDFR [LGKGDFR peptide] | – | 22.0% | 11.69%
GGAAGAGATGGCGACCACACCAAATCTGAGTCTACCCCATGAAGGAGCTGATCCTGATGG [R7-03 hybrid ligand (LGKGDFR-DNA)] | 0.125 | – | –
